Some results are limits rather than exact numbers.

One test deals with HLA-A*68:01. As to the kind of experiment: IEDB peptide-MHC binding, cellular MHC/competitive/fluorescence; ≥ and ≤ were set here for values at or beyond the usual limits of such assays. Particulars: source organism: Hepatitis B virus.
Test [1] addresses HLA-A*02:01. Briefly: IEDB peptide-MHC binding, purified MHC/competitive/radioactivity; ≥ and ≤ were set here for values at or beyond the usual limits of such assays. Particulars: source organism: Hepatitis B virus.
In test [2] the target is HLA-A*02:02. The description is as above. The settings on record: source organism: Hepatitis B virus.
Test [3] addresses HLA-A*02:03. Described as above. Particulars: source organism: Hepatitis B virus.
Test [4] has as its target HLA-A*02:06. The description is as above. Particulars: source organism: Hepatitis B virus.
The target in another test is HLA-A*03:01. Briefly: IEDB peptide-MHC binding, cellular MHC/competitive/fluorescence; ≥ and ≤ were set here for values at or beyond the usual limits of such assays. The settings on record: source organism: Hepatitis B virus.
Another test deals with HLA-A*11:01. The test is described as above. Particulars: source organism: Hepatitis B virus.
The target of another test is HLA-A*31:01. The test is described as above. Particulars: source organism: Hepatitis B virus.
The next test addresses HLA-A*68:02. Described as above.
The target in test [5] is HLA-A*02:01. Described as above.
The target of test [6] is HLA-A*02:02. The description is as above.
The target of test [7] is HLA-A*02:03. The description is as above.
Test [8] concerns the target HLA-A*02:06. The description is as above.
Setting [9] is: source organism: Vaccinia virus WR.
The mark [10] stands for this setting: source organism: Influenza A virus.
[11] abbreviates: source organism: Hepacivirus hominis.

Consider ILSPFLPLL, for which the IC50 with HLA-A*68:01 is no less than 70 µM; in the test with HLA-A*02:01 [1], 0.0014 µM; with HLA-A*02:02 [2], 76 pM; with HLA-A*02:03 [3], 0.00084 µM; with HLA-A*02:06 [4], 0.00093 µM.

In the case of GMLPVCPLI, the half-inhibitory concentration (IC50) with HLA-A*03:01, with HLA-A*11:01 and with HLA-A*68:01 was no less than 70 µM in each case.

In the test with HLA-A*68:01, SILSPFLPL came in with a 50% inhibitory concentration (IC50) of no less than 70 µM.

For FLLAQFTSA, the half-inhibitory concentration (IC50) in the test with HLA-A*31:01 is 25.7 µM; in the test with HLA-A*68:01, no less than 70 µM; in the test with HLA-A*68:02 (source organism: Hepatitis B virus) it was 9.89 µM; with HLA-A*02:01 [1] it was 0.098 µM; with HLA-A*02:06 [4], 0.0087 µM.

In the case of TQLFKYVPSA, the half-inhibitory concentration (IC50) with HLA-A*02:01 [5] (setting [9]), in the test with HLA-A*02:02 [6] (setting [9]), with HLA-A*02:03 [7] (setting [9]), with HLA-A*02:06 [8] (setting [9]) and in the test with HLA-A*68:02 (setting [9]) was no less than 70 µM each time.

ALEPRKEIDV: the half-maximal inhibitory concentration (IC50) with HLA-A*02:01 [5] (setting [9]) is 27.2 µM; in the test with HLA-A*02:02 [6] (setting [9]), 8.37 µM; with HLA-A*02:03 [7] (setting [9]), 11.2 µM; with HLA-A*02:06 [8] (setting [9]) it was 63.8 µM; in the test with HLA-A*68:02 (setting [9]), no less than 70 µM.

Take TVDVRNIVT: the IC50 is 10.5 µM with HLA-A*02:01 [5] (setting [9]); 13.4 µM with HLA-A*02:02 [6] (setting [9]); 13.1 µM with HLA-A*02:03 [7] (setting [9]); 53.6 µM with HLA-A*02:06 [8] (setting [9]); 5.98 µM with HLA-A*68:02 (setting [9]).

Turning to TTELNIVDEI, the IC50 is 35.9 µM with HLA-A*02:01 [5] (setting [9]); 38.7 µM with HLA-A*02:02 [6] (setting [9]); no less than 70 µM with HLA-A*02:03 [7] (setting [9]); 21.4 µM in the test with HLA-A*02:06 [8] (setting [9]); 10.7 µM in the test with HLA-A*68:02 (setting [9]).

As for RTWKVLSIMA, the IC50 in the test with HLA-A*02:01 [5] (setting [9]) was determined as 8.48 µM; with HLA-A*02:02 [6] (setting [9]), 24 µM; with HLA-A*02:03 [7] (setting [9]) it was 6.05 µM; in the test with HLA-A*02:06 [8] (setting [9]), 5.75 µM; with HLA-A*68:02 (setting [9]), 8.2 µM.

Take DAKRNSKSL: the 50% inhibitory concentration (IC50) with HLA-A*02:01 [5] (setting [9]) is no less than 70 µM; in the test with HLA-A*02:02 [6] (setting [9]) it was 13.7 µM; with HLA-A*02:03 [7] (setting [9]), 49.7 µM; in the test with HLA-A*02:06 [8] (setting [9]) it was no less than 70 µM; with HLA-A*68:02 (setting [9]) it was no less than 70 µM.

As to ELTNKKYRCM, the half-maximal inhibitory concentration (IC50) in the test with HLA-A*02:01 [5] (setting [9]) was no less than 70 µM; in the test with HLA-A*02:02 [6] (setting [9]), no less than 70 µM; with HLA-A*02:03 [7] (setting [9]) it was no less than 70 µM; with HLA-A*02:06 [8] (setting [9]), no less than 70 µM; in the test with HLA-A*68:02 (setting [9]), 13.8 µM.

Take DIMLPESDL: the IC50 was 12.9 µM with HLA-A*02:01 [5] (setting [9]); 18.5 µM with HLA-A*02:02 [6] (setting [9]); 35.8 µM with HLA-A*02:03 [7] (setting [9]); 31.6 µM with HLA-A*02:06 [8] (setting [9]); 13.4 µM with HLA-A*68:02 (setting [9]).

Turning to ALSYSAGA, the half-maximal inhibitory concentration (IC50) was 39.3 µM with HLA-A*02:01 [5] (setting [10]); 16.9 µM in the test with HLA-A*02:02 [6] (setting [10]); 10.7 µM with HLA-A*02:03 [7] (setting [10]); no less than 70 µM with HLA-A*02:06 [8] (setting [10]); no less than 70 µM in the test with HLA-A*68:02 (setting [10]).

For PLIRHENRMVL, the 50% inhibitory concentration (IC50) in the test with HLA-A*02:01 [5] (setting [10]) is 28.8 µM; with HLA-A*02:02 [6] (setting [10]), no less than 70 µM; with HLA-A*02:03 [7] (setting [10]) it was 16.9 µM; in the test with HLA-A*02:06 [8] (setting [10]), no less than 70 µM; with HLA-A*68:02 (setting [10]) it was no less than 70 µM.

For PTLFGRGVI, the IC50 with HLA-A*02:01 [5] (setting [9]) is no less than 70 µM; with HLA-A*02:02 [6] (setting [9]), 30.3 µM; with HLA-A*02:03 [7] (setting [9]) it was 6.73 µM; in the test with HLA-A*02:06 [8] (setting [9]), 64.9 µM; with HLA-A*68:02 (setting [9]), no less than 70 µM.

In the case of PMIIGEPIIV, the IC50 with HLA-A*02:01 [5] (setting [9]) is 26.3 µM; with HLA-A*02:02 [6] (setting [9]), no less than 70 µM; with HLA-A*02:03 [7] (setting [9]), 8.84 µM; in the test with HLA-A*02:06 [8] (setting [9]) it was no less than 70 µM; with HLA-A*68:02 (setting [9]) it was no less than 70 µM.

Take AIDRQVSVKL: the IC50 in the test with HLA-A*02:01 [5] (setting [9]) was found to be 14 µM; with HLA-A*02:02 [6] (setting [9]) it was 7.9 µM; in the test with HLA-A*02:03 [7] (setting [9]), 13.1 µM; with HLA-A*02:06 [8] (setting [9]), 31.9 µM; with HLA-A*68:02 (setting [9]), 52.3 µM.

On to LLGLLLLCV, for which the IC50 is 7.37 µM in the test with HLA-A*02:01 [5] (setting [11]); 9.77 µM with HLA-A*02:02 [6] (setting [11]); 6.77 µM with HLA-A*02:03 [7] (setting [11]); 19.1 µM in the test with HLA-A*02:06 [8] (setting [11]); no less than 70 µM with HLA-A*68:02 (setting [11]).

In the case of VIRHVDGKIL, the IC50 with HLA-A*02:01 [5] (setting [9]) was no less than 70 µM; with HLA-A*02:02 [6] (setting [9]) it was no less than 70 µM; with HLA-A*02:03 [7] (setting [9]) it was 33.4 µM; with HLA-A*02:06 [8] (setting [9]), no less than 70 µM; in the test with HLA-A*68:02 (setting [9]), no less than 70 µM.

On to EIDVSEVKT, for which the IC50 in the test with HLA-A*02:01 [5] (setting [9]) was no less than 70 µM; in the test with HLA-A*02:02 [6] (setting [9]) it was 46 µM; with HLA-A*02:03 [7] (setting [9]), no less than 70 µM; with HLA-A*02:06 [8] (setting [9]), no less than 70 µM; in the test with HLA-A*68:02 (setting [9]), 20 µM.

With NINFNNSSII, the IC50 with HLA-A*02:01 [5] (setting [9]) was determined as 32.7 µM; in the test with HLA-A*02:02 [6] (setting [9]) it was 6.64 µM; in the test with HLA-A*02:03 [7] (setting [9]) it was 13.3 µM; with HLA-A*02:06 [8] (setting [9]) it was 30.1 µM; in the test with HLA-A*68:02 (setting [9]) it was 6.97 µM.

Take PTNDIPSLFI: the IC50 with HLA-A*02:01 [5] (setting [9]) turned out to be 18.4 µM; with HLA-A*02:02 [6] (setting [9]), 11 µM; with HLA-A*02:03 [7] (setting [9]), 61.8 µM; with HLA-A*02:06 [8] (setting [9]) it was 14.8 µM; in the test with HLA-A*68:02 (setting [9]), 24.8 µM.

By IC50 is commonly meant the point on the concentration scale where inhibition reaches its midpoint.
